Assay results reported in patent US6593098 (FOX CHASE CANCER CENTER, dated 2003).

Key:
CENP-E = target: T1, CENP-E (human, UniProt Q02224 1-2698, limits assumed); test: specificity test, method not named in the sentence (probably yeast two-hybrid)
T1 construct: Endogenous Hela protein in the immunoprecipitations; also called CENP-E kinetochore motor; endogenous CENP-E

human BUB1A kinase = target: T2, human BUB1A kinase (human, UniProt O60566 1-1050, hyperphosphorylated in mitotically arrested cells (P-ser and P-thr the major phosphoamino acids; positions not given)); test: as above
T2 construct: Endogenous huBUB1A immunoprecipitated or blotted from Hela lysates; also called huBUB1A; hUBUB1A
T2 sequence (O60566 whole entry R349Q/E1018K): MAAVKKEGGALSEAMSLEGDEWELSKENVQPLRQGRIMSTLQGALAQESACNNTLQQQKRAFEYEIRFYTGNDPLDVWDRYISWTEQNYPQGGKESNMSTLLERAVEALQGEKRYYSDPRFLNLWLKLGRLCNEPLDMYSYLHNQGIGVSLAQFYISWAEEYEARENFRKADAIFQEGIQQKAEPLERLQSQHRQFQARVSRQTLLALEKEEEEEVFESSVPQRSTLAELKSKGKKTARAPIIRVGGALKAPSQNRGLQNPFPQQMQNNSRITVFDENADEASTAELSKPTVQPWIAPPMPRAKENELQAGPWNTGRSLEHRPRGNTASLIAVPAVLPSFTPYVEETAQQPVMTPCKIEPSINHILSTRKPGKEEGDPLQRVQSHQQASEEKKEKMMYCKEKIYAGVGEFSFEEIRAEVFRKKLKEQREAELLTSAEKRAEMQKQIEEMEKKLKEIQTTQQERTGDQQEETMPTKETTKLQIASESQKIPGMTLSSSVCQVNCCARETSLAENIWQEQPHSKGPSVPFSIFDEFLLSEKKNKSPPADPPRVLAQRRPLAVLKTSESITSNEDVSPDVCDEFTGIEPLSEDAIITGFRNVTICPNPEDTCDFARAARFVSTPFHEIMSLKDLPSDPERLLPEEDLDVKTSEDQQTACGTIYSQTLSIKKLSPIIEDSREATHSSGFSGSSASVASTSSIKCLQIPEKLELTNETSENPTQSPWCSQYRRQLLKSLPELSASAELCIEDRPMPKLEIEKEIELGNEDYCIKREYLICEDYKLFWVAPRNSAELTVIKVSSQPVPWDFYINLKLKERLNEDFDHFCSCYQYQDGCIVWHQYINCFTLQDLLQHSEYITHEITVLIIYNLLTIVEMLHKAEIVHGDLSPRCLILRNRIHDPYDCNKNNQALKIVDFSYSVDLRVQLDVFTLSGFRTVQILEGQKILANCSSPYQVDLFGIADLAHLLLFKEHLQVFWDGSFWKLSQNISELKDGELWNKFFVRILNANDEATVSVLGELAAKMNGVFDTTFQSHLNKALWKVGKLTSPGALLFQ

T1 sequence (Q02224 1-2698 limits assumed): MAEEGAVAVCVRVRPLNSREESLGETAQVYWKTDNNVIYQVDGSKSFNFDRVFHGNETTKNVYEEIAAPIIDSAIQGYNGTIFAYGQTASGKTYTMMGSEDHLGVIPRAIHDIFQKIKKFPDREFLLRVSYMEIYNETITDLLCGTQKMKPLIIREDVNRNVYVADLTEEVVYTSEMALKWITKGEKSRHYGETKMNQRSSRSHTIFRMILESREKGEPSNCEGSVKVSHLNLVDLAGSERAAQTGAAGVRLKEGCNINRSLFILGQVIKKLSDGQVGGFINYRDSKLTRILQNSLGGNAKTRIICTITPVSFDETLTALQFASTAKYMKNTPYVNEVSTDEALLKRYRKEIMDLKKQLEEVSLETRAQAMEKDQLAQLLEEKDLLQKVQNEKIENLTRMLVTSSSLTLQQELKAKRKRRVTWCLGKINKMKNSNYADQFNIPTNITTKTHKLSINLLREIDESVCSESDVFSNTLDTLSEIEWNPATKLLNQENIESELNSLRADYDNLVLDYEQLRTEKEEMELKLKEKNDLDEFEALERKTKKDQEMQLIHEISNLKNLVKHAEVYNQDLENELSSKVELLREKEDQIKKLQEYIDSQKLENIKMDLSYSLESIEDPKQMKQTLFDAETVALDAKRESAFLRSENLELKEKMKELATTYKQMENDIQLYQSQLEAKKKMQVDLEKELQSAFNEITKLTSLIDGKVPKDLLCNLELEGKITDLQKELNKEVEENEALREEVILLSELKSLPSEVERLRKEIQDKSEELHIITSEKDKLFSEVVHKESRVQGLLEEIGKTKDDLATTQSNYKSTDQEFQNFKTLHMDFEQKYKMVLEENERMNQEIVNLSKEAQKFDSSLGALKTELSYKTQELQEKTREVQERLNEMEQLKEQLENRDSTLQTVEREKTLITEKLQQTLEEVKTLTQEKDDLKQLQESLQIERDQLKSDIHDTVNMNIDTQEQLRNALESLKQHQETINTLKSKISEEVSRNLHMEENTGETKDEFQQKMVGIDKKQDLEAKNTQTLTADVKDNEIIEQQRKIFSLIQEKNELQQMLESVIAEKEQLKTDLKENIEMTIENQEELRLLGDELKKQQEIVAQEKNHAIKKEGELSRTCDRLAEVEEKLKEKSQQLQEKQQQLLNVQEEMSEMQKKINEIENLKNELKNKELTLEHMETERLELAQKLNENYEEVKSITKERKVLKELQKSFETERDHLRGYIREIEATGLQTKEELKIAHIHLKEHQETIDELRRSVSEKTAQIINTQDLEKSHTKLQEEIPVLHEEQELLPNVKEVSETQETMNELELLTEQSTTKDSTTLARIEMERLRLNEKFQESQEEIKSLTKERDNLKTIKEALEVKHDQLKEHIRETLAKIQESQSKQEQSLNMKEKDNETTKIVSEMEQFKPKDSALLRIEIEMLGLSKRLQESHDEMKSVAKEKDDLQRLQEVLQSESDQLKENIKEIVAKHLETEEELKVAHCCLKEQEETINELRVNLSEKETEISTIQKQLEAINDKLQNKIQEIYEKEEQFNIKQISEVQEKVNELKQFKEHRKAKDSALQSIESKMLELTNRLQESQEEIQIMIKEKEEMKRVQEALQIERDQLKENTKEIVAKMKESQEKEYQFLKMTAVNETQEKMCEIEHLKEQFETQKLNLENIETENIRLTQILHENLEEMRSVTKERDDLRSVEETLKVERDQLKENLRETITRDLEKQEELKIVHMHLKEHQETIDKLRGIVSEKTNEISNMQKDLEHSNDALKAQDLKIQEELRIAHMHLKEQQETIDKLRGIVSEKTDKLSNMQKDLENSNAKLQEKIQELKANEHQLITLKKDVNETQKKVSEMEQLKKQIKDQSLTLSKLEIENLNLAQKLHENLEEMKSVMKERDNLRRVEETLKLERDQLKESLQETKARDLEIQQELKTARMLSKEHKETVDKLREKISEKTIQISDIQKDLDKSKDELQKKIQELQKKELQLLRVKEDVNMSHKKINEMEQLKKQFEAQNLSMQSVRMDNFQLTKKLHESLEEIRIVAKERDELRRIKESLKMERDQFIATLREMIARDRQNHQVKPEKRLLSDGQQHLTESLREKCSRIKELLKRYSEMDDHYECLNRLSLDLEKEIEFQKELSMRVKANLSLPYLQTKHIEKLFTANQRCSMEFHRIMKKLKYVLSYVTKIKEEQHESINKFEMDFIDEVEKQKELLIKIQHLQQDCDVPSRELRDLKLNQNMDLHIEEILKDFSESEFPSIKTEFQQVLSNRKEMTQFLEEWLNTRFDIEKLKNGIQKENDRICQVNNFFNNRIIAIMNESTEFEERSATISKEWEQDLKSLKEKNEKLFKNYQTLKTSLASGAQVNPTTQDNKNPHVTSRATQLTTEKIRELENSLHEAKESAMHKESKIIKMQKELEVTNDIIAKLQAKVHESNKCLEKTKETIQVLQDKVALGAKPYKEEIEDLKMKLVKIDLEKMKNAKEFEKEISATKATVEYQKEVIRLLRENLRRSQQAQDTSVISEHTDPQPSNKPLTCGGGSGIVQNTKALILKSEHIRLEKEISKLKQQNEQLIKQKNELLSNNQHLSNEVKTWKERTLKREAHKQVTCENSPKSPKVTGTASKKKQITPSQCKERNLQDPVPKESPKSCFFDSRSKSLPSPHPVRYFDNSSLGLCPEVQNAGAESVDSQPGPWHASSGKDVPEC

binding result (CENP-E)	binding result (human BUB1A kinase)	Binder
no binding		human BUB1B kinase (enzyme, Endogenous protein in the immunoprecipitations; also called huBUB1B) MDTPENVLQMLEAHMQSYKGNDPLGEWERYIQWVEENFPENKEYLITLLEHLMKEFLDKKKYHNDPRFISYCLKFAEYNSDLHQFFEFLYNHGIGTLSSPLYIAWAGHLEAQGELQHASAVLQRGIQNQAEPREFLQQQYRLFQTRLTETHLPAQARTSEPLHNVQVLNQMITSKSNPGNNMACISKNQGSELSGVISSACDKESNMERRVITISKSEYSVHSSLASKVDVEQVVMYCKEKLIRGESEFSFEELRAQKYNQRRKHEQWVNEDRHYMKRKEANAFEEQLLKQKMDELHKKLHQVVETSHEDLPASQERSEVNPARMGPSVGSQQELRAPCLPVTYQQTPVNMEKNPREAPPVVPPLANAISAALVSPATSQSIAPPVPLKAQTVTDSMFAVASKDAGCVNKSTHEFKPQSGAEIKEGCETHKVANTSSFHTTPNTSLGMVQATPSKVQPSPTVHTKEALGFIMNMFQAPTLPDISDDKDEWQSLDQNEDAFEAQFQKNVRSSGAWGVNKIISSLSSAFHVFEDGNKENYGLPQPKNKPTGARTFGERSVSRLPSKPKEEVPHAEEFLDDSTVWGIRCNKTLAPSPKSPGDFTSAAQLASTPFHKLPVESVHILEDKENVVAKQCTQATLDSCEENMVVPSRDGKFSPIQEKSPKQALSSHMYSASLLRLSQPAAGGVLTCEAELGVEACRLTDTDAAIAEDPPGSAAIAEDPPDAIAGLQAEWMQMSSLGTVDAPNFIVGNPWDDKLIFKLLSGLSKPVSSYPNTFEWQCKLPAIKPKTEFQLGSKLVYVHHLLGEGAFAQVYEATQGDLNDAKNKQKFVLKVQKPANPWEFYIGTQLMERLKPSMQHMFMKFYSAHLFQNGSVLVGELYSYGTLLNAINLYKNTPEKVMPQGLVISFAMRMLYMIEQVHDCEIIHGDIKPDNFILGNGFLEQDDEDDLSAGLALIDLGQSIDMKLFPKGTIFTAKCETSGFQCVEMLSNKPWNYQIDYFGVAATVYCMLFGTYMKVKNEGGECKPEGLFRRLPHLDMWNEFFHVMLNIPDCHHLPSLDLLRQKLKKVFQQHYTNKIRALRNRLIVLLLECKRSRK
	no binding	CENP-F (other, UniProt P49454 2542-3114, looked up) SQVEGEHQLWKEQNLELRNLTVELEQKIQVLQSKNASLQDTLEVLQSSYKNLENELELTKMDKMSFVEKVNKMTAKETELQREMHEMAQKTAELQEELSGEKNRLAGELQLLLEEIKSSKDQLKELTLENSELKKSLDCMHKDQVEKEGKVREEIAEYQLRLHEAEKKHQALLLDTNKQYEVEIQTYREKLTSKEECLSSQKLEIDLLKSSKEELNNSLKATTQILEELKKTKMDNLKYVNQLKKENERAQGKMKLLIKSCKQLEEEKEILQKELSQLQAAQEKQKTGTVMDTKVDELTTEIKELKETLEEKTKEADEYLDKYCSLLISHEKLEKAKEMLETQVAHLCSQQSKQDSRGSPLLGPVVPGPSPIPSVTEKRLSSGQNKASGKRQRSSGIWENGRGPTPATPESFSKKSKKAVMSGIHPAEDTEGTEFEPEGLPEVVKKGFADIPTGKTSPYILRRTTMATRTSPRLAAQKLALSPLSLGKENLAESSKPTAGGSRSQKVKVAQRSPVDSGTILREPTTKSVPVNNLPERSPTDSPREGLRVKRGRLVPSPKAGLESNGSENCKVQ
